Numbered stars: 1 amine (or outer) side, 2 acyl side, 3 side chain; on linkers, the order of the positions; unused ones are H or OH. Square brackets hold non-standard residues; d marks the D form. Side chains are listed from the residue outwards. * marks the point of attachment. C16 diacid = O=C(O)CCCCCCCCCCCCCCC(=O)*; γGlu = O=C(O)[C@H](CCC(=O)[*:2])N[*:1]; 1Nal = N[C@@H](Cc1cccc2ccccc12)C(=O)O; Palmitoyl = CCCCCCCCCCCCCCCC(=O)*; Aib = CC(C)(N)C(=O)O
Tests used:
[1] = molecular target: T1, human GIP receptor (human, UniProt P48546 22-466); experiment: cell-based or functional assay
T1 sequence (looked up): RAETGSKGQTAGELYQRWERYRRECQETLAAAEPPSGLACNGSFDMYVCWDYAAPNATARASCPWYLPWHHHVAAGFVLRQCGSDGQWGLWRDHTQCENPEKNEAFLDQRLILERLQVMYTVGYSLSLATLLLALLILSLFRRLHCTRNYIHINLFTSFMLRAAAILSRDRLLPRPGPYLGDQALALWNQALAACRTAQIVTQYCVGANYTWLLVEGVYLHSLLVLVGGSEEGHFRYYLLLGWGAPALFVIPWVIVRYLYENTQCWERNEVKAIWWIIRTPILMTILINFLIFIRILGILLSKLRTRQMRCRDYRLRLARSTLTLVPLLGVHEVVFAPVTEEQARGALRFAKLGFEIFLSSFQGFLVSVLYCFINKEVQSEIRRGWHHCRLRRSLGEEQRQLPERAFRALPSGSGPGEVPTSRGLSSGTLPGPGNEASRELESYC

[2] = molecular target: human GLP-1 receptor (human, UniProt P43220 24-463); experiment: cell-based or functional assay

B1: Compound 25 (peptide)
peptide: H-Y[Aib]EGTFTSDYSIYLDKKAQRAFVNWLLA[Aib]KYG[1Nal]LDF-NH2
SMILES: CC[C@H](C)[C@H](NC(=O)[C@H](CO)NC(=O)[C@H](Cc1ccc(O)cc1)NC(=O)[C@H](CC(=O)O)NC(=O)[C@H](CO)NC(=O)[C@@H](NC(=O)[C@H](Cc1ccccc1)NC(=O)[C@@H](NC(=O)CNC(=O)[C@H](CCC(=O)O)NC(=O)C(C)(C)NC(=O)[C@@H](N)Cc1ccc(O)cc1)[C@@H](C)O)[C@@H](C)O)C(=O)N[C@@H](Cc1ccc(O)cc1)C(=O)N[C@@H](CC(C)C)C(=O)N[C@@H](CC(=O)O)C(=O)N[C@@H](CCCCN)C(=O)N[C@@H](CCCCN)C(=O)N[C@@H](C)C(=O)N[C@@H](CCC(N)=O)C(=O)N[C@@H](CCCNC(=N)N)C(=O)N[C@@H](C)C(=O)N[C@@H](Cc1ccccc1)C(=O)N[C@H](C(=O)N[C@@H](CC(N)=O)C(=O)N[C@@H](Cc1c[nH]c2ccccc12)C(=O)N[C@@H](CC(C)C)C(=O)N[C@@H](CC(C)C)C(=O)N[C@@H](C)C(=O)NC(C)(C)C(=O)N[C@@H](CCCCN)C(=O)N[C@@H](Cc1ccc(O)cc1)C(=O)NCC(=O)N[C@@H](Cc1cccc2ccccc12)C(=O)N[C@@H](CC(C)C)C(=O)N[C@@H](CC(=O)O)C(=O)N[C@@H](Cc1ccccc1)C(N)=O)C(C)C
- EC50, cAMP induction in HEK293 cells expressing human GIP R [1]: 0.12 nM
- EC50, cAMP induction in HEK293 cells expressing human GLP-1 R [2]: 0.041 nM

B2: Compound 31 (peptide)
peptide: H-Y[Aib]EGTFTSDYSIYLDKK([γGlu-C16 diacid])AQRAFVNWLLA[Aib]K-NH2
SMILES: CC[C@H](C)[C@H](NC(=O)[C@H](CO)NC(=O)[C@H](Cc1ccc(O)cc1)NC(=O)[C@H](CC(=O)O)NC(=O)[C@H](CO)NC(=O)[C@@H](NC(=O)[C@H](Cc1ccccc1)NC(=O)[C@@H](NC(=O)CNC(=O)[C@H](CCC(=O)O)NC(=O)C(C)(C)NC(=O)[C@@H](N)Cc1ccc(O)cc1)[C@@H](C)O)[C@@H](C)O)C(=O)N[C@@H](Cc1ccc(O)cc1)C(=O)N[C@@H](CC(C)C)C(=O)N[C@@H](CC(=O)O)C(=O)N[C@@H](CCCCN)C(=O)N[C@@H](CCCCNC(=O)CC[C@H](NC(=O)CCCCCCCCCCCCCCC(=O)O)C(=O)O)C(=O)N[C@@H](C)C(=O)N[C@@H](CCC(N)=O)C(=O)N[C@@H](CCCNC(=N)N)C(=O)N[C@@H](C)C(=O)N[C@@H](Cc1ccccc1)C(=O)N[C@H](C(=O)N[C@@H](CC(N)=O)C(=O)N[C@@H](Cc1c[nH]c2ccccc12)C(=O)N[C@@H](CC(C)C)C(=O)N[C@@H](CC(C)C)C(=O)N[C@@H](C)C(=O)NC(C)(C)C(=O)N[C@@H](CCCCN)C(N)=O)C(C)C
- EC50, cAMP induction in HEK293 cells expressing human GIP R [1]: 0.022 nM
- EC50, cAMP induction in HEK293 cells expressing human GLP-1 R [2]: 0.02 nM

B3: Compound 3 (peptide)
peptide: H-Y[Aib]EGTFTSDYSIALDKIAQRAFVNWLVA[Aib]K-NH2
SMILES: CC[C@H](C)[C@H](NC(=O)[C@H](CCCCN)NC(=O)[C@H](CC(=O)O)NC(=O)[C@H](CC(C)C)NC(=O)[C@H](C)NC(=O)[C@@H](NC(=O)[C@H](CO)NC(=O)[C@H](Cc1ccc(O)cc1)NC(=O)[C@H](CC(=O)O)NC(=O)[C@H](CO)NC(=O)[C@@H](NC(=O)[C@H](Cc1ccccc1)NC(=O)[C@@H](NC(=O)CNC(=O)[C@H](CCC(=O)O)NC(=O)C(C)(C)NC(=O)[C@@H](N)Cc1ccc(O)cc1)[C@@H](C)O)[C@@H](C)O)[C@@H](C)CC)C(=O)N[C@@H](C)C(=O)N[C@@H](CCC(N)=O)C(=O)N[C@@H](CCCNC(=N)N)C(=O)N[C@@H](C)C(=O)N[C@@H](Cc1ccccc1)C(=O)N[C@H](C(=O)N[C@@H](CC(N)=O)C(=O)N[C@@H](Cc1c[nH]c2ccccc12)C(=O)N[C@@H](CC(C)C)C(=O)N[C@H](C(=O)N[C@@H](C)C(=O)NC(C)(C)C(=O)N[C@@H](CCCCN)C(N)=O)C(C)C)C(C)C
- EC50, cAMP induction in HEK293 cells expressing human GIP R [1]: 0.015 nM
- EC50, cAMP induction in HEK293 cells expressing human GLP-1 R [2]: 0.022 nM

B4: Compound 26 (peptide)
peptide: H-Y[Aib]EGTFTSDYSIYLDKKAQRAFVNWLLAYG[1Nal]LDF-NH2
SMILES: CC[C@H](C)[C@H](NC(=O)[C@H](CO)NC(=O)[C@H](Cc1ccc(O)cc1)NC(=O)[C@H](CC(=O)O)NC(=O)[C@H](CO)NC(=O)[C@@H](NC(=O)[C@H](Cc1ccccc1)NC(=O)[C@@H](NC(=O)CNC(=O)[C@H](CCC(=O)O)NC(=O)C(C)(C)NC(=O)[C@@H](N)Cc1ccc(O)cc1)[C@@H](C)O)[C@@H](C)O)C(=O)N[C@@H](Cc1ccc(O)cc1)C(=O)N[C@@H](CC(C)C)C(=O)N[C@@H](CC(=O)O)C(=O)N[C@@H](CCCCN)C(=O)N[C@@H](CCCCN)C(=O)N[C@@H](C)C(=O)N[C@@H](CCC(N)=O)C(=O)N[C@@H](CCCNC(=N)N)C(=O)N[C@@H](C)C(=O)N[C@@H](Cc1ccccc1)C(=O)N[C@H](C(=O)N[C@@H](CC(N)=O)C(=O)N[C@@H](Cc1c[nH]c2ccccc12)C(=O)N[C@@H](CC(C)C)C(=O)N[C@@H](CC(C)C)C(=O)N[C@@H](C)C(=O)N[C@@H](Cc1ccc(O)cc1)C(=O)NCC(=O)N[C@@H](Cc1cccc2ccccc12)C(=O)N[C@@H](CC(C)C)C(=O)N[C@@H](CC(=O)O)C(=O)N[C@@H](Cc1ccccc1)C(N)=O)C(C)C
- EC50, cAMP induction in HEK293 cells expressing human GIP R [1]: 0.8 nM
- EC50, cAMP induction in HEK293 cells expressing human GLP-1 R [2]: 0.39 nM

B5: Compound 24 (peptide)
peptide: H-Y[Aib]EGTFTSDYSIYLDKKAQRAFVNWLL[Aib]K-NH2
SMILES: CC[C@H](C)[C@H](NC(=O)[C@H](CO)NC(=O)[C@H](Cc1ccc(O)cc1)NC(=O)[C@H](CC(=O)O)NC(=O)[C@H](CO)NC(=O)[C@@H](NC(=O)[C@H](Cc1ccccc1)NC(=O)[C@@H](NC(=O)CNC(=O)[C@H](CCC(=O)O)NC(=O)C(C)(C)NC(=O)[C@@H](N)Cc1ccc(O)cc1)[C@@H](C)O)[C@@H](C)O)C(=O)N[C@@H](Cc1ccc(O)cc1)C(=O)N[C@@H](CC(C)C)C(=O)N[C@@H](CC(=O)O)C(=O)N[C@@H](CCCCN)C(=O)N[C@@H](CCCCN)C(=O)N[C@@H](C)C(=O)N[C@@H](CCC(N)=O)C(=O)N[C@@H](CCCNC(=N)N)C(=O)N[C@@H](C)C(=O)N[C@@H](Cc1ccccc1)C(=O)N[C@H](C(=O)N[C@@H](CC(N)=O)C(=O)N[C@@H](Cc1c[nH]c2ccccc12)C(=O)N[C@@H](CC(C)C)C(=O)N[C@@H](CC(C)C)C(=O)NC(C)(C)C(=O)N[C@@H](CCCCN)C(N)=O)C(C)C
- EC50, cAMP induction in HEK293 cells expressing human GIP R [1]: 0.096 nM
- EC50, cAMP induction in HEK293 cells expressing human GLP-1 R [2]: 0.0085 nM

B6: Compound 32 (peptide)
peptide: H-Y[Aib]EGTFTSDYSI[Aib]LDKK([γGlu-Palmitoyl])AQRAFVEWLLAQGPSSGAPPPS-NH2
SMILES: CCCCCCCCCCCCCCCC(=O)N[C@@H](CCC(=O)NCCCC[C@H](NC(=O)[C@H](CCCCN)NC(=O)[C@H](CC(=O)O)NC(=O)[C@H](CC(C)C)NC(=O)C(C)(C)NC(=O)[C@@H](NC(=O)[C@H](CO)NC(=O)[C@H](Cc1ccc(O)cc1)NC(=O)[C@H](CC(=O)O)NC(=O)[C@H](CO)NC(=O)[C@@H](NC(=O)[C@H](Cc1ccccc1)NC(=O)[C@@H](NC(=O)CNC(=O)[C@H](CCC(=O)O)NC(=O)C(C)(C)NC(=O)[C@@H](N)Cc1ccc(O)cc1)[C@@H](C)O)[C@@H](C)O)[C@@H](C)CC)C(=O)N[C@@H](C)C(=O)N[C@@H](CCC(N)=O)C(=O)N[C@@H](CCCNC(=N)N)C(=O)N[C@@H](C)C(=O)N[C@@H](Cc1ccccc1)C(=O)N[C@H](C(=O)N[C@@H](CCC(=O)O)C(=O)N[C@@H](Cc1c[nH]c2ccccc12)C(=O)N[C@@H](CC(C)C)C(=O)N[C@@H](CC(C)C)C(=O)N[C@@H](C)C(=O)N[C@@H](CCC(N)=O)C(=O)NCC(=O)N1CCC[C@H]1C(=O)N[C@@H](CO)C(=O)N[C@@H](CO)C(=O)NCC(=O)N[C@@H](C)C(=O)N1CCC[C@H]1C(=O)N1CCC[C@H]1C(=O)N1CCC[C@H]1C(=O)N[C@@H](CO)C(N)=O)C(C)C)C(=O)O
- EC50, cAMP induction in HEK293 cells expressing human GIP R [1]: 0.012 nM
- EC50, cAMP induction in HEK293 cells expressing human GLP-1 R [2]: 0.018 nM

B7: Compound 27 (peptide)
peptide: H-Y[Aib]EGTFTSDYSIYLDKKAEKAFVNWLLA[Aib]K-NH2
SMILES: CC[C@H](C)[C@H](NC(=O)[C@H](CO)NC(=O)[C@H](Cc1ccc(O)cc1)NC(=O)[C@H](CC(=O)O)NC(=O)[C@H](CO)NC(=O)[C@@H](NC(=O)[C@H](Cc1ccccc1)NC(=O)[C@@H](NC(=O)CNC(=O)[C@H](CCC(=O)O)NC(=O)C(C)(C)NC(=O)[C@@H](N)Cc1ccc(O)cc1)[C@@H](C)O)[C@@H](C)O)C(=O)N[C@@H](Cc1ccc(O)cc1)C(=O)N[C@@H](CC(C)C)C(=O)N[C@@H](CC(=O)O)C(=O)N[C@@H](CCCCN)C(=O)N[C@@H](CCCCN)C(=O)N[C@@H](C)C(=O)N[C@@H](CCC(=O)O)C(=O)N[C@@H](CCCCN)C(=O)N[C@@H](C)C(=O)N[C@@H](Cc1ccccc1)C(=O)N[C@H](C(=O)N[C@@H](CC(N)=O)C(=O)N[C@@H](Cc1c[nH]c2ccccc12)C(=O)N[C@@H](CC(C)C)C(=O)N[C@@H](CC(C)C)C(=O)N[C@@H](C)C(=O)NC(C)(C)C(=O)N[C@@H](CCCCN)C(N)=O)C(C)C
- EC50, cAMP induction in HEK293 cells expressing human GIP R [1]: 0.3 nM
- EC50, cAMP induction in HEK293 cells expressing human GLP-1 R [2]: 0.074 nM
